In US20210373004A1 (BIOASTER, published 2021):

B1: Avitag-RLuc8-ImKhan-6His (other)
chain: MGLNDIFEAQKIEWHEGGSGGSGGSASKVYDPEQRKRMITGPQWWARCKQMNVLDSFINYYDSEKHAENAVIFLHGNATSSYLWRHVVPHIEPVARCIIPDLIGMGKSGKSGNGSYRLLDHYKYLTAWFELLNLPKKIIFVGHDWGAALAFHYAYEHQDRIKAIVHMESVVDVIESWDEWPDIEEDIALIKSEEGEKMVLENNFFVETVLPSKIMRKLEPEEFAAYLEPFKEKGEVRRPTLSWPREIPLVKGGKPDVVQIVRNYNAYLRASDDLPKLFIESDPGFFSNAIVEGAKKFPNTEFVKVKGLHFLQEDAPDEMGKYIKSFVERVLKNEQGGGSTAGGGGSELKNKLEDYTEAEFLSLLNKIWAVDVSEEEHDNLIDHFEKLSEHPNGNGLIFYPENGVEDSPEGVLKVIKEWRAKNGKPGFKKLEGGGSHHHHHH
notes: Immunity protein fused to the luciferase RLuc8 as reporter; added in solution; also called ImKhan-Rluc8; ImKahn
B2: Myc-RLuc8-ImErw-Avitag-6His (other)
chain: MGGEQKLISEEDLGGSASKVYDPEQRKRMITGPQWWARCKQMNVLDSFINYYDSEKHAENAVIFLHGNATSSYLWRHVVPHIEPVARCIIPDLIGMGKSGKSGNGSYRLLDHYKYLTAWFELLNLPKKIIFVGHDWGAALAFHYAYEHQDRIKAIVHMESVVDVIESWDEWPDIEEDIALIKSEEGEKMVLENNFFVETVLPSKIMRKLEPEEFAAYLEPFKEKGEVRRPTLSWPREIPLVKGGKPDVVQIVRNYNAYLRASDDLPKLFIESDPGFFSNAIVEGAKKFPNTEFVKVKGLHFLQEDAPDEMGKYIKSFVERVLKNEQKLPGGSNLKEKLEDYTEAEFISYLKEFFDNPMGLRGKELETHLDSLVEHFDKIVFHPEGNGLIFYPPDERDDSPEGVLNEIKRWRKSQGLPLFKDSKGGSGGSGLNDIFEAQKIEWHELEGGGSHHHHHH
notes: Immunity protein fused to the luciferase RLuc8 as reporter; added in solution; also called ImErw-Rluc8
B3: Avitag-RLuc8-ImLeaf-6His (other)
chain: MGLNDIFEAQKIEWHEGGSGGSGGSASKVYDPEQRKRMITGPQWWARCKQMNVLDSFINYYDSEKHAENAVIFLHGNATSSYLWRHVVPHIEPVARCIIPDLIGMGKSGKSGNGSYRLLDHYKYLTAWFELLNLPKKIIFVGHDWGAALAFHYAYEHQDRIKAIVHMESVVDVIESWDEWPDIEEDIALIKSEEGEKMVLENNFFVETVLPSKIMRKLEPEEFAAYLEPFKEKGEVRRPTLSWPREIPLVKGGKPDVVQIVRNYNAYLRASDDLPKLFIESDPGFFSNAIVEGAKKFPNTEFVKVKGLHFLQEDAPDEMGKYIKSFVERVLKNEQGGGSTAGGGGSKRQFADYTEAEFIAFMEDIFRENEAETDDRLDVLLDQFREITGHPDGTDLIYYCESDAECTPERITQKVKSWRAANGLPGFKSTLEGGGSHHHHHH
notes: Immunity protein fused to the luciferase RLuc8 as reporter; added in solution; also called ImLeaf-Rluc8
B4: Myc-RLuc8-ImSyr-Avitag-6His (other)
chain: MGGEQKLISEEDLGGSASKVYDPEQRKRMITGPQWWARCKQMNVLDSFINYYDSEKHAENAVIFLHGNATSSYLWRHVVPHIEPVARCIIPDLIGMGKSGKSGNGSYRLLDHYKYLTAWFELLNLPKKIIFVGHDWGAALAFHYAYEHQDRIKAIVHMESVVDVIESWDEWPDIEEDIALIKSEEGEKMVLENNFFVETVLPSKIMRKLEPEEFAAYLEPFKEKGEVRRPTLSWPREIPLVKGGKPDVVQIVRNYNAYLRASDDLPKLFIESDPGFFSNAIVEGAKKFPNTEFVKVKGLHFLQEDAPDEMGKYIKSFVERVLKNEQKLPGGSIFKEKIEDYTEEEFLEFLKGLSSEYSQLHGDEFIKHMDRSVEHFVKITEHPAQTDVIFYPEEGQEDTPEGILKVIKEWRAKNGKPGFKSGGSGGSGLNDIFEAQKIEWHELEGGGSHHHHHH
notes: Immunity protein fused to the luciferase RLuc8 as reporter; added in solution; also called ImSyr-Rluc8

Assays:
[1] = target: T1, Flag-mCherry-ColKhan-Cys-6His (Photorhabdus khanii); test: EIA 8 plex n° 2: colicin coated at 100 nM, Im-RLuc8 alone at 100 nM, luciferase signal (FIG. 4, light grey bars)
[2] = target: T2, Flag-mCherry-ColLeaf-Cys-6His (Pseudomonas sp Leaf83); test: EIA 8 plex n° 2: colicin coated at 100 nM, Im-RLuc8 at 100 nM, luminescence; light bar alone, dark bar with the 7 other unfused Im proteins
[3] = target: T3, Flag-mCherry-ColSyr-Cys-6His (Pseudomonas syringae B728A); test: EIA 8 plex n° 1: colicin coated at 100 nM, Im-RLuc8 at 100 nM, luminescence; light bar alone, dark bar with the 7 other unfused Im proteins
Flag-mCherry-ColE9-6His [4] = target: T4, Flag-mCherry-ColE9-6His (Escherichia coli); test: as above
T4 construct: also called Colicin E9

Flag-EmGFP-ColE2-6His [5] = target: T5, Flag-EmGFP-ColE2-6His (Escherichia coli); test: as above
T5 construct: Coated on the plate or sprayed on the membrane; also called Colicin E2

[6] = target: T6, Flag-mCherry-ColAP41-Cys-6His (Pseudomonas aeruginosa AP41); test: as above
Flag-mCherry-ColE8-6His = target: T7, Flag-mCherry-ColE8-6His (Escherichia coli); test: as above
T7 construct: also called Colicin E8

Flag-EmGFP-ColE7-6His [7] = target: T8, Flag-EmGFP-ColE7-6His (Escherichia coli); test: as above
T8 construct: also called Colicin E7

[8] = target: T9, Flag-mCherry-ColErw-Cys-6His (Pectobacterium carotovorum); test: EIA 8 plex n° 1: colicin coated at 100 nM, Im-RLuc8 alone at 100 nM, luciferase signal
[9] = target: T1, Flag-mCherry-ColKhan-Cys-6His; test: EIA 8 plex n° 1: colicin coated at 100 nM, Im-RLuc8 alone at 100 nM, luciferase signal (FIG. 3, light grey bars)
[10] = target: T9, Flag-mCherry-ColErw-Cys-6His; test: EIA 8 plex n° 2: colicin coated at 100 nM, Im-RLuc8 alone at 100 nM, luciferase signal (FIG. 4, light grey bars)
[11] = target: T1, Flag-mCherry-ColKhan-Cys-6His; test: EIA 8 plex n° 1: colicin coated at 100 nM, Im-RLuc8 at 100 nM, luminescence; light bar alone, dark bar with the 7 other unfused Im proteins
[12] = target: T9, Flag-mCherry-ColErw-Cys-6His; test: EIA 8 plex n° 1: colicin coated at 100 nM, Im-RLuc8 alone at 100 nM, luciferase signal (FIG. 3, light grey bars)
[13] = target: T2, Flag-mCherry-ColLeaf-Cys-6His; test: EIA 8 plex n° 2: colicin coated at 100 nM, Im-RLuc8 alone at 100 nM, luciferase signal (FIG. 4, light grey bars)
[14] = target: T9, Flag-mCherry-ColErw-Cys-6His; test: EIA 8 plex n° 2: colicin coated at 100 nM, Im-RLuc8 at 100 nM, luminescence; light bar alone, dark bar with the 7 other unfused Im proteins
[15] = target: T1, Flag-mCherry-ColKhan-Cys-6His; test: as above
[16] = target: T3, Flag-mCherry-ColSyr-Cys-6His; test: as above
Flag-mCherry-ColE9-6His [17] = target: T4, Flag-mCherry-ColE9-6His; test: as above
Flag-EmGFP-ColE2-6His [18] = target: T5, Flag-EmGFP-ColE2-6His; test: as above
[19] = target: T6, Flag-mCherry-ColAP41-Cys-6His; test: as above
[20] = target: T3, Flag-mCherry-ColSyr-Cys-6His; test: EIA 8 plex n° 2: colicin coated at 100 nM, Im-RLuc8 alone at 100 nM, luciferase signal (FIG. 4, light grey bars)
[21] = target: T9, Flag-mCherry-ColErw-Cys-6His; test: EIA 8 plex n° 1: colicin coated at 100 nM, Im-RLuc8 at 100 nM, luminescence; light bar alone, dark bar with the 7 other unfused Im proteins
Flag-EmGFP-ColE7-6His [22] = target: T8, Flag-EmGFP-ColE7-6His; test: EIA 8 plex n° 1: colicin coated at 100 nM, Im-RLuc8 alone at 100 nM, luciferase signal
[23] = target: T3, Flag-mCherry-ColSyr-Cys-6His; test: EIA 8 plex n° 1: colicin coated at 100 nM, Im-RLuc8 alone at 100 nM, luciferase signal (FIG. 3, light grey bars)

Row | Binder | binding result [2] | binding result [3] | binding result (Flag-mCherry-ColE9-6His [4]) | binding result (Flag-EmGFP-ColE2-6His [5]) | binding result [6] | binding result (Flag-mCherry-ColE8-6His) | binding result (Flag-EmGFP-ColE7-6His [7]) | binding result [15] | also measured
1 | B1 | no binding (tested: 100 nM) | no binding (tested: 100 nM) | no binding (tested: 100 nM) | no binding (tested: 100 nM) | no binding (tested: 100 nM) | no binding (tested: 100 nM) | no binding (tested: 100 nM) | – | RLU [1]: > 2.4e+06 RLU; RLU [8]: > 100000 RLU; RLU [9]: > 2e+06 RLU
2 | B2 | no binding (tested: 100 nM) | no binding (tested: 100 nM) | no binding (tested: 100 nM) | no binding (tested: 100 nM) | no binding (tested: 100 nM) | no binding (tested: 100 nM) | no binding (tested: 100 nM) | – | RLU [10]: > 2.4e+06 RLU; binding result [11]: binds; RLU [12]: > 2e+06 RLU
3 | B3 | – | – | – | – | – | – | – | no binding (tested: 100 nM) | RLU [13]: > 2.4e+06 RLU; binding result [14]: no binding (tested: 100 nM); binding result [16]: no binding (tested: 100 nM); binding result (Flag-mCherry-ColE9-6His [17]): no binding (tested: 100 nM); binding result (Flag-EmGFP-ColE2-6His [18]): no binding (tested: 100 nM); binding result [19]: no binding (tested: 100 nM)
4 | B4 | no binding (tested: 100 nM) | – | no binding (tested: 100 nM) | no binding (tested: 100 nM) | – | no binding (tested: 100 nM) | – | no binding (tested: 100 nM) | RLU [20]: > 2.4e+06 RLU; binding result [21]: no binding (tested: 100 nM); RLU (Flag-EmGFP-ColE7-6His [22]): > 100000 RLU; RLU [23]: > 2e+06 RLU
